Measured values from patent US20150087584A1 (COUNCIL OF SCIENTIFIC AND INDUSTRIAL RESEARCH, published 2015).

Target: bovine trypsin (bovine, UniProt P00760 24-246)
Test: cell-based or functional assay

bovine trypsin, sequence (P00760 24-246): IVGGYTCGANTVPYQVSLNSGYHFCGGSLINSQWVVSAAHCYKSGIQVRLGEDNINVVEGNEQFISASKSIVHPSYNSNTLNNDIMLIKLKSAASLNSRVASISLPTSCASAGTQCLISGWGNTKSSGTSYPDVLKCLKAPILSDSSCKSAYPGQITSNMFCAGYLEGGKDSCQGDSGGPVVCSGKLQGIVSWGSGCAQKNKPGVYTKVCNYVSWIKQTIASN

| Binder | IC50 of inhibition of bovine trypsin activity (BApNA substrate) [µM] |
| --- | --- |
| NRLCTNCCAGRKGCNYYSADGTFICEGESDPNNPKACPRNCDPNIAYSLC (other) [inhibitory repeat domain IRD-12 of Capsicum annuum Pin-II proteinase inhibitors (CanPIs)] | ~65 |
| QPICTNSSAGLKGCNYYNADGTFICEGESDPNHPKACPKNCDPNIAYSLC (other) [inhibitory repeat domain IRD-9 of Capsicum annuum Pin-II proteinase inhibitors (CanPIs)] | ~2.2 |
